One experiment deals with TNBS-treated rats. Briefly: Colonic distension-induced pain threshold in TNBS-treated rats (chronic colonic allodynia). It is filed as in vivo, rat. Conditions: 30 mg/kg s.c. in 20% cyclodextrin 30 minutes before distension, mean +/- SEM (n=7-8), vehicle 17.8+/-1.8, p<0.01. The procedure:
(§1) Adult male rats of the Wistar strain, 320 to 350 g in weight (obtained from the Janvier farm, Le Genest-Saint-Isle, France) were used for all the experiments. They were kept under controlled conditions of temperature (20+/−1° C.), humidity (50+/−5%) and lighting (light from 7 to 19 hours). The animals were starved of food for 18 hours before the beginning of the experiments, the supply of water being maintained.
(§2) Distension studies were carried out on waking rats in isobaric mode, using pressure increments of 5 mm of mercury every thirty seconds. A latex balloon, placed in the distal part of the colon is linked to an electronic barostat. The pain threshold is defined as the pressure inducing the first abdominal contraction. Each rat is subjected to four distension trials so as to increase the reproducibility of the test. The mean of the pressure values is calculated on the thresholds observed for the four successive distensions.
A laparotomy is carried out on rats anaesthetized with acepromazine (12 mg/kg i.p.) and ketamine (80 mg/kg i.p.) so as to inject into the proximal colon the trinitrobenzenesulphonic acid (TNBS) (50 mg/kg) in ethanol at 30%. The rats are then placed in individual cages. The colonic distension experiment is performed seven days after the administration of TNBS. […]

In the next experiment the test system is naïve rats. The experiment is described as follows: Colonic distension-induced pain threshold in naïve rats (isobaric balloon distension). The experiment is classed as in vivo, rat. How it is done:
as §1, §2
2.5 S-NGF obtained from mouse submaxillary gland (marketed by the company SIGMA under the reference N-6009) is dissolved in 0.1% bovine serum albumin (BSA). Into the naïve rats, 0.1 ng to 100 ng of NGF are injected by the i.p. route, 30 minutes before the distension.
Naïve rats were subjected to distension experiments with a balloon placed in the distal part of the colon. […]

With `O=C1c2cccc3cc([N+](=O)[O-])cc(c23)C(=O)N1NCCO` [ALE-0540], the colonic pain threshold in the experiment on TNBS-treated rats is 37.6+/−4.5 mmHg.

B1: NGF: 2.5 S-NGF obtained from mouse submaxillary gland (SIGMA reference N-6009) (protein, UniProt P01139 122-241, looked up)
Beta-nerve growth factor: SSTHPVFHMGEFSVCDSVSVWVGDKTTATDIKGKEVTVLAEVNINNSVFRQYFFETKCRASNPVESGCRGIDSKHWNSYCTTTHTFVKALTTDEKQAAWRFIRIDTACVCVLSRKATRRG
modifications: Beta-nerve growth factor
Regarding B1, the colonic pain threshold result in the experiment on naïve rats (naïve Wistar rats, 1 ng of NGF i.p. 30 minutes before distension, control (BSA) about 44 mmHg) was “less than 20 mmHg”. For the same molecule, the “effect on threshold of pain in the colon” value with naïve rats (naïve rats, increasing doses of NGF (0.1 ng to 100 ng) i.p.) is given as “significant reduction”.
